Data from patent US20260201391.
Where two headings read alike, the source gives them in different places.

Tested on: thrombin

Substance | binding signal (fold higher Kd than TBV-08) (Kd of TBV-08 stated as 300-fold lower than Bock-15) | binding signal (fold higher Kd than TBV-08) (Kd of TBV-08 stated as 200-fold lower than Tasset-29)
Bock-15 | 300 | –
Tasset-29 | – | 200
